How the values were obtained:
Assay in all cases: cell-based or functional assay
[1] = target: HIV-1 Env of isolate 92RW020 (clade A) (HIV-1)
[2] = target: HIV-1 Env of isolate MGRM-A-010 (clade A) (HIV-1)
[3] = target: HIV-1 Env of isolate MGRM-D-018 (clade D) (HIV-1)
[4] = target: HIV-1 92RW020 Env (pseudovirus) (HIV-1)
[5] = target: HIV-1 94UG103 Env (pseudovirus) (HIV-1)
[6] = target: HIV-1 MGRM-D-001 Env (pseudovirus) (HIV-1)
[7] = target: HIV-1 envelope glycoprotein (Env) of isolate 92RW020 (HIV-1)
[8] = target: HIV-1 envelope glycoprotein (Env) of isolate MGRM-C-026 (HIV-1)
[9] = target: HIV-1 envelope glycoprotein (Env) of isolate MGRM-C-027 (HIV-1)
[10] = target: HIV-1 APV17 envelope glycoprotein (Env), clade B pseudovirus (HIV-1)
[11] = target: HIV-1 JRCSF envelope glycoprotein (Env), clade B pseudovirus (HIV-1)
[12] = target: HIV-1 MGRM-D-001 envelope glycoprotein (Env), clade D pseudovirus (HIV-1)
[13] = target: HIV-1 APV13 Env (HIV-1 isolate APV13 (clade B))
[14] = target: HIV-1 APV6 Env (HIV-1 isolate APV6 (clade B))
[15] = target: HIV-1 MGRM-C-026 Env (HIV-1 isolate MGRM-C-026 (clade C))
[16] = target: HIV-1 MGRM-D-018 Env (HIV-1 isolate MGRM-D-018 (clade D))
[17] = target: HIV-1 APV17 envelope glycoprotein (Env) on virus (HIV-1, clade B, isolate APV17)
[18] = target: HIV-1 CMU02 envelope glycoprotein (Env) on virus (HIV-1, clade AE, isolate CMU02)
[19] = target: HIV-1 NL43 envelope glycoprotein (Env) on virus (HIV-1, clade B, isolate NL43)
[20] = target: HIV-1 92BR020 envelope glycoprotein (Env) (HIV-1)
[21] = target: HIV-1 92RW020 envelope glycoprotein (Env) (HIV-1)
[22] = target: HIV-1 92TH021 envelope glycoprotein (Env) (HIV-1)
[23] = target: HIV-1 92UG005 envelope glycoprotein (Env) (HIV-1)
[24] = target: HIV-1 CMU02 envelope glycoprotein (Env) (HIV-1)
[25] = target: HIV-1 NL43 envelope glycoprotein (Env) (HIV-1)
[26] = target: HIV-1 Env of pseudovirus CAAN (HIV-1)
[27] = target: HIV-1 Env of pseudovirus TR0.11 (HIV-1)
[28] = target: HIV-1 Env of isolate JRFL (subtype B), on pseudovirus (HIV-1)
[29] = target: HIV-1 Env of isolate MG RM-D-021 (subtype D) (HIV-1)
[30] = target: HIV-1 Env of pseudovirus 98CN006 (HIV-1)
[31] = target: HIV-1 envelope glycoprotein (Env) of isolate MG RM-A-008 (HIV-1)

Chain of 5329_C19 (PGT-136) (antibody) (VH): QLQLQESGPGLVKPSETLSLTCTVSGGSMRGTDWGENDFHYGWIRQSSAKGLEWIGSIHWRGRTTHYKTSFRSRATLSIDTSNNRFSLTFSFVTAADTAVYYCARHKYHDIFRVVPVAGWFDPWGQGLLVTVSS
Chain of 5329_C19 (PGT-136) (antibody) (VL): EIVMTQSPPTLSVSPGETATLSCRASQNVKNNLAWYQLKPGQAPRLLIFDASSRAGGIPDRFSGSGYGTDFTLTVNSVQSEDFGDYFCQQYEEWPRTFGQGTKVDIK
Chain of 1443_C16 (PG16) (TCN-116) (antibody) (VH): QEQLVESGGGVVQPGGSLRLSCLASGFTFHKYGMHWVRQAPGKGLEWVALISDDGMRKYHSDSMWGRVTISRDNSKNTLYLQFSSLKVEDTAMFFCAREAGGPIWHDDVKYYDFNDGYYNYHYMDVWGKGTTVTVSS
Chain of 1443_C16 (PG16) (TCN-116) (antibody) (VL): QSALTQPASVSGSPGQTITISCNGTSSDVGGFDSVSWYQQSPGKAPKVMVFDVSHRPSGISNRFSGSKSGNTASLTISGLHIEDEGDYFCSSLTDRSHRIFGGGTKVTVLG

Substance: 1496_C09 (PG9) (TCN-109) (antibody)
- Neutralization IC80 [1]: 1.04 µg/mL
- Neutralization IC90 [1]: 3.4 µg/mL
- neutralization IC50 [1]: 0.161 µg/mL
- Neutralization IC80 [2]: 0.121 µg/mL
- Neutralization IC90 [2]: 0.242 µg/mL
- Neutralization IC95 [2]: 0.456 µg/mL
- neutralization IC50 [2]: 0.0375 µg/mL
- Neutralization IC80 [3]: 0.18 µg/mL
- Neutralization IC90 [3]: 0.43 µg/mL
- Neutralization IC95 [3]: 1.05 µg/mL
- neutralization IC50 [3]: 0.0444 µg/mL

Substance: 5123_A06 (PGT-125) (antibody)
- Neutralization by PGT-125, IC50 [4]: 0.0028 µg/mL
- Neutralization by PGT-125, IC80 [4]: 0.011 µg/mL
- Neutralization by PGT-125, IC90 [4]: 0.0248 µg/mL
- Neutralization by PGT-125, IC95 [4]: 0.0526 µg/mL
- Neutralization by PGT-125, IC50 [5]: 0.0124 µg/mL
- Neutralization by PGT-125, IC80 [5]: 0.0373 µg/mL
- Neutralization by PGT-125, IC90 [5]: 0.071 µg/mL
- Neutralization by PGT-125, IC95 [5]: 0.129 µg/mL
- Neutralization by PGT-125, IC50 [6]: 2.31 µg/mL
- Neutralization by PGT-125, IC80 [6]: > 10 µg/mL
- Neutralization by PGT-125, IC90 [6]: > 10 µg/mL
- Neutralization by PGT-125, IC95 [6]: > 10 µg/mL

Substance: 5141_B17 (PGT-126) (antibody)
- Neutralization IC80 [7]: 0.0168 µg/mL
- Neutralization IC90 [7]: 0.0359 µg/mL
- Neutralization IC95 [7]: 0.0728 µg/mL
- neutralization IC50 [7]: 0.0046 µg/mL
- Neutralization IC80 [8]: 0.0345 µg/mL
- Neutralization IC90 [8]: 0.0831 µg/mL
- Neutralization IC95 [8]: 0.185 µg/mL
- neutralization IC50 [8]: 0.0076 µg/mL
- Neutralization IC80 [9]: > 10 µg/mL
- Neutralization IC90 [9]: > 10 µg/mL
- Neutralization IC95 [9]: > 10 µg/mL
- neutralization IC50 [9]: 1.14 µg/mL

Substance: 4858_P08 (PGT-123) (antibody)
- IC50, pseudovirus neutralization [10]: 0.18 µg/mL
- IC80 (pseudovirus neutralization) [10]: 0.539 µg/mL
- IC90 (pseudovirus neutralization) [10]: 1.01 µg/mL
- IC95 (pseudovirus neutralization) [10]: 1.75 µg/mL
- IC50, pseudovirus neutralization [11]: 0.0423 µg/mL
- IC80 (pseudovirus neutralization) [11]: 0.143 µg/mL
- IC90 (pseudovirus neutralization) [11]: 0.289 µg/mL
- IC95 (pseudovirus neutralization) [11]: 0.547 µg/mL
- IC50, pseudovirus neutralization [12]: 0.215 µg/mL
- IC80 (pseudovirus neutralization) [12]: 0.678 µg/mL
- IC90 (pseudovirus neutralization) [12]: 1.31 µg/mL
- IC95 (pseudovirus neutralization) [12]: 2.33 µg/mL

Substance: 4838_L06 (PGT-121) (antibody)
- Neutralization IC80 [13]: 1.31 µg/mL
- Neutralization IC90 [13]: 2.8 µg/mL
- Neutralization IC95 [13]: 5.15 µg/mL
- Neutralization IC80 [14]: 0.145 µg/mL
- Neutralization IC95 [14]: 0.569 µg/mL
- Neutralization IC95 [15]: 0.0687 µg/mL
- Neutralization IC80 [16]: 0.0231 µg/mL
- Neutralization IC90 [16]: 0.0414 µg/mL
- Neutralization IC95 [16]: 0.0715 µg/mL

Substance: 4877_D15 (PGT-122) (antibody)
- Neutralization IC80 [17]: 1.76 µg/mL
- Neutralization IC90 [17]: 3.58 µg/mL
- Neutralization IC95 [17]: 6.92 µg/mL
- neutralization IC50 [17]: 0.522 µg/mL
- Neutralization IC80 [18]: > 10 µg/mL
- Neutralization IC90 [18]: > 10 µg/mL
- Neutralization IC95 [18]: > 10 µg/mL
- neutralization IC50 [18]: > 10 µg/mL
- Neutralization IC80 [19]: > 10 µg/mL
- Neutralization IC90 [19]: > 10 µg/mL
- Neutralization IC95 [19]: > 10 µg/mL
- neutralization IC50 [19]: > 10 µg/mL

Substance: 5329_C19 (PGT-136) (antibody)
- Neutralization IC80 [20]: > 10 µg/mL
- Neutralization IC90 [20]: > 10 µg/mL
- Neutralization IC95 [20]: > 10 µg/mL
- neutralization IC50 [20]: > 10 µg/mL
- Neutralization IC80 [21]: > 10 µg/mL
- Neutralization IC90 [21]: > 10 µg/mL
- Neutralization IC95 [21]: > 10 µg/mL
- neutralization IC50 [21]: 0.738 µg/mL
- Neutralization IC80 [22]: > 10 µg/mL
- Neutralization IC90 [22]: > 10 µg/mL
- Neutralization IC95 [22]: > 10 µg/mL
- neutralization IC50 [22]: > 10 µg/mL
- Neutralization IC80 [23]: > 10 µg/mL
- Neutralization IC90 [23]: > 10 µg/mL
- Neutralization IC95 [23]: > 10 µg/mL
- neutralization IC50 [23]: > 10 µg/mL
- Neutralization IC80 [24]: > 10 µg/mL
- Neutralization IC90 [24]: > 10 µg/mL
- Neutralization IC95 [24]: > 10 µg/mL
- neutralization IC50 [24]: > 10 µg/mL
- Neutralization IC80 [25]: > 10 µg/mL
- Neutralization IC90 [25]: > 10 µg/mL
- Neutralization IC95 [25]: > 10 µg/mL
- neutralization IC50 [25]: > 10 µg/mL

Substance: 1443_C16 (PG16) (TCN-116) (antibody)
- IC50, pseudovirus neutralization (TZM-bl assay) [26]: 6.37 µg/mL
- IC50, pseudovirus neutralization (TZM-bl assay) [27]: 3.61 µg/mL

Substance: PGV04 (antibody)
- IC50, single-round pseudovirus neutralization [28]: 0.032 µg/mL
- IC50 (µg/mL), pseudovirus neutralization [29]: > 50 µg/mL
- IC50, pseudovirus neutralization [30]: 1.32 µg/mL
- IC50 [31]: 0.555 µg/mL

Source: US20240132578A1
